Experimental findings from article PMC11652653, “SON-1010: an albumin-binding IL-12 fusion protein that improves cytokine half-life, targets tumors, and enhances therapeutic efficacy” (Frontiers in Immunology, 2024) are described below.

The target of the assay is T1, human serum albumin (human, UniProt P02768 25-609).
T1 construct: human serum albumin (HSA); also called HSA; rHSA
As to the kind of experiment: SPR; HSA bound to the chip, SON-1010 added, then SPARC (ternary complex); pH 6.0. The note with it: both partners purified. A general note: In SPR one partner is held on a chip, and binding of the other changes the refractive index at the surface.

The term Kd denotes a measure of binding affinity in units of concentration.

B1: secreted protein acidic and rich in cysteine (natural protein, UniProt P09486 18-303, looked up)
chain: APQQEALPDETEVVEETVAEVTEVSVGANPVQVEVGEFDDGAEETEEEVVAENPCQNHHCKHGKVCELDENNTPMCVCQDPTSCPAPIGEFEKVCSNDNKTFDSSCHFFATKCTLEGTKKGHKLHLDYIGPCKYIPPCLDSELTEFPLRMRDWLKNVLVTLYERDEDNNLLTEKQKLRVKKIHENEKRLEAGDHPVELLARDFEKNYNMYIFPVHWQFGQLDQHPIDGYLSHTELAPLRAPLIPMEHCTTRFFETCDLDNDKYIALDEWAGCFGIKQKDIDKDLVI
notes: SPARC (secreted protein acidic and rich in cysteine); also called SPARC
Take B1: binding was put at a Kd of 10 nM.
